T1: recombinant human MOG protein (human, UniProt Q16653 30-154, limits assumed)
T1 construct: Bought recombinant protein; also called HMOG
T1 sequence (looked up): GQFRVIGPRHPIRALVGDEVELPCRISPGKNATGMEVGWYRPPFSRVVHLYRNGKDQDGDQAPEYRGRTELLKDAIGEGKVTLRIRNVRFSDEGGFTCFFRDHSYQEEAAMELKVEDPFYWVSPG

T2: recombinant murine MOG protein (murine, UniProt Q61885 29-156, limits assumed)
T2 construct: Bought recombinant protein; also called MMOG
T2 sequence (looked up): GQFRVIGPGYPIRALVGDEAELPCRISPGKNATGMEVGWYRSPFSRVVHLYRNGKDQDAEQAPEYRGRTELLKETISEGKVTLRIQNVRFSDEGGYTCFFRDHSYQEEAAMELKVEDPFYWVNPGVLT


Columns and labels:
[1] = target: T1, recombinant human MOG protein; assay: phage-scFv ELISA on coated recombinant human MOG (0.5 µg/well), anti-M13 HRP, OD450 over BSA background
Experimental: (§1) The binding characteristics of the scFvs expressed on the surface of the phages isolated during the screening were determined using an ELISA assay using the recombinant MOG protein (R&D system). Along with the selected clones, phage-scFv-8-18C5 is expressed to serve as a positive control for ELISA. Briefly, phage-scFv were produced in the form of clones isolated on a 96-well plate in 800 μl of 2YT/ampicillin/glucose cultures infected with the helper phage M13K07 (as described previously). The phages produced overnight at 26° C. were then recovered in the supernatants after 30 minutes of centrifugation at 3000 g. These supernatants were directly diluted 1/2 in PBS/4% BSA/0.1% Tween 20 and tested on Maxisorp immunoplates previously coated with 0.5 μg of human or murine MOG or PBS (background control (bdf) in BSA)/well and blocked with 4% BSA in PBS. After incubation for 2 hours at 37° C., the wells were washed 3 times with PBS/0.1% Tween-20 and bound phages-scfv were detected with anti-M13 HRP antibody (GE Healthcare). The plate is read at 450 nm (OD) on a plate reader (TECAN). The results are expressed as a ratio: OD on target/OD bdf (OD on an uncoated plate saturated with BSA) and the ratios are compared with that obtained for the positive control.

[2] = target: T2, recombinant murine MOG protein; assay: phage-scFv ELISA on coated recombinant murine MOG (0.5 µg/well), anti-M13 HRP, OD450 over BSA background
Experimental: as §1

| ratio OD on target/OD bdf [1] | ratio OD on target/OD bdf [2] | Binder |
| --- | --- | --- |
| 9.36 ratio | 9.78 ratio | anti-MOG MO4H-04 antibody (scFv, V domains shown) VH: EVQLVQSGAEVKKPVASVKVSCKASGYTFTSYGISWVRQAPGQGLEWMGWISAYNGNTNYAQKLQGRVTMTTDTSTSTAYMELRSLRSDDTAVYYCARNMGCSSTSCFVSWFDPWGQGTLVTVSS VL: QSALTQPPSASGSPGQSVTISCTGTHSDVGSFDSVSWYQQHPDKAPKLIIYDVNKRPAGVPHRFSGSKSGNTASLTVSGLQSEDEADYYCNSYAGVDNFVFGTGTKVTVL |
| 5.14 ratio | 9.12 ratio | anti-MOG MO4H-03 antibody (scFv, V domains shown) VH: QVQLVQSGTEVKKPGASVKVSCKVSGYTLTELSMHWVRQAPGKGLEWMGGFDPEDGETIYAQKFQGRVTMTEDTSTDTAYMELSSLRSEDTAVYYCATGATGAFDIWGQGTTVTVSS VL: DIVMTQTPLSSPVTLGQPASISCRSSQSLVDSDGNTYLNWLQQRPGQPPRLLIYKISNRFSGVPDRFSGSGAGTEFTLKISRVEAEDVGVYYCMQATQFPHTFGQGTKLEIK |
| 2.05 ratio | – | anti-MOG MO3J-72 antibody (scFv, V domains shown) VH: EVQLVESGGGSVKPGGSLRLSCAASGFRFDDYAMHWVRQAPGKGLEWVSGISWNSGAIGYADSVQGRFTISGDNAKNTLYLQMNGLRVEDTAMYYCARDGHGDYPIDYWGQGTLVTVSS VL: QSVLTQPPSVSGAPGQRVSISCTGSGSNIGAGFDVHWYQQVPGTTPKLLIYGNNNRPSGVPDRFSGSTSATSASLAITGLQADDEADYYCQSYDRSLRYVFGTGTKLTVL |
| 3.46 ratio | – | anti-MOG MO4H-51 antibody (scFv, V domains shown) VH: QVQLVQSGAEVKKPGASVKVSCKASGYTFTSYGMHWVRQAPGQRLEWMGWINPGNGNTKYSQKFQGRVTITRDTSASTAYMDLSSLRSEDTAVYYCARLPRIGGWFDPWGQGTLVTVSS VL: not shown |
| 2.99 ratio | – | anti-MOG MO4H-55 antibody (scFv, V domains shown) VH: QVQLQQSGPGLVKPSQTLSLTCAISGDSVSSNSAAWNWIRQSPSRGLEWLGRTYYRSKWYNDYAESVKSRMTVTSDTSKNQVSLHLNSVTPEDTAVYYCAREHIAVPGVFDIWGQGTLVTVSS VL: DVVMTQPPSASGTPGQGVTISCSGSSSNIGSNTVNWYQQLPGTAPKLLIYGSGQRPSGVPDRFSGSRSGTSASLAISGLQSEDEADYYCAAWDDSLNGRVFGQGTKVDIT |
| 2.44 ratio | – | anti-MOG MO4H-65 antibody (scFv, V domains shown) VH: EVQLVQPGAEVKKPGASVKVSCKASDYTFTSYGISWVRQAPGQGLEWMGWISAYNGNTYYARKFGRVTMTTDTSTTTAYMELRRLRSEDTAVYYCARSGVDNIDYLFDYWGQGTLVTVSS VL: EIVMTQSPGTMSVSPGESATLSCRASQSVSSNLAWYQQKPGQAPRLLIYGASTRATGLPARFSGSGSRTDFTLTISSLQPEDFATYYCQQTTSFPLTFSGGTKLEIT |
| 6.57 ratio | 4.68 ratio | anti-MOG MO4H-46 antibody (scFv, V domains shown) VH: QVQLVQSGAEVKKPGASVKVSCKASGYTFTSYAMHWVRQAPGQRLEWMGWINAGNGNAKYSQKFQGRVTLTRDTSASTAYMKLSSLRSEDTAVYYCARGAPTYRYFDLWGRGTLVTVSS VL: QSVLTQPPSVSAAPGQKVTISCSGSSSNIGNNYVAWYQQLPGTAPKLLIYDNNKRPSGIPDRFSGSKSGTSATLGITGLQTGDEADYYCGTSDSSLSAVVFGGGTKLTVL |
| 6.23 ratio | 5.55 ratio | anti-MOG MO3B-03 antibody (scFv, V domains shown, T0004 labels followed) VH: QVQLQQSGPGLVRPSQTLSLTCAISGDSVSSSSAAWNWVRSPSRGLEWLGRTYYRSKWYYDYAVSVKNRIAINPDTSKNQFSLHLNSVTPEDTAVYYCATGWLRGHLDYWGQGTLVTVSS VL: AIQMTQSPSSVSASVGDRVTITCRATQSISTYLNWYQQKVGRGPKLLVYAASRLQTGVPSRFSGSGSGTDFTLTISSLQPEDSATYYCQQSYSAPPAFGGGTKVEIK |

Reference: US20210238281A1 (INSTITUT NATIONAL DE LA SANTE ET DE LA RECHERCHE MEDICALE …, published 2021)
